Source: patent US20110311522A1

Key:
[1] = target: phage peptides (screening product screened with 8G9 from twelve-peptide library)
[2] = target: 14 strains of non-H5 viruses (H1~H13, Chicken NDV); test: cell-based or functional assay
[3] = target: H5 virus strain (fifteen strains of H5N1 viruses); test: cell-based or functional assay
[4] = target: hemagglutinin (HA) of H5N1 virus strain FJ1.5 (H5N1 avian influenza virus, strain FJ1.5); test: cell-based or functional assay
[5] = target: hemagglutinin (HA) of H5N1 virus strain GD1.1 (H5N1 avian influenza virus, strain GD1.1); test: cell-based or functional assay
[6] = target: hemagglutinin (HA) of H5N1 virus strain GD3.1 (H5N1 avian influenza virus, strain GD3.1); test: cell-based or functional assay
[7] = target: hemagglutinin (HA) of H5N1 virus strain GD4.1 (H5N1 avian influenza virus, strain GD4.1); test: cell-based or functional assay
[8] = target: hemagglutinin (HA) of H5N1 virus strain HN3.1 (H5N1 avian influenza virus, strain HN3.1); test: cell-based or functional assay
[9] = target: hemagglutinin (HA) of H5N1 virus strain IDN1.1 (H5N1 avian influenza virus, strain IDN1.1); test: cell-based or functional assay
[10] = target: hemagglutinin (HA) of H5N1 virus strain IDN3.1 (H5N1 avian influenza virus, strain IDN3.1); test: cell-based or functional assay
[11] = target: hemagglutinin (HA) of H5N1 virus strain IDN6.1 (H5N1 avian influenza virus, strain IDN6.1); test: cell-based or functional assay
[12] = target: hemagglutinin (HA) of H5N1 virus strain IDN8.1 (H5N1 avian influenza virus, strain IDN8.1); test: cell-based or functional assay
[13] = target: hemagglutinin (HA) of H5N1 virus strain Mixed1.1 (H5N1 avian influenza virus, strain Mixed1.1); test: cell-based or functional assay
[14] = target: hemagglutinin (HA) of H5N1 virus strain QH1.1 (H5N1 avian influenza virus, strain QH1.1); test: cell-based or functional assay
[15] = target: hemagglutinin (HA) of H5N1 virus strain VNM2-2.1 (H5N1 avian influenza virus, strain VNM2-2.1); test: cell-based or functional assay
[16] = target: hemagglutinin (HA) of H5N1 virus strain VTM1.1 (H5N1 avian influenza virus, strain VTM1.1); test: cell-based or functional assay
[17] = target: hemagglutinin (HA) of H5N1 virus strain VTM4.1 (H5N1 avian influenza virus, strain VTM4.1); test: cell-based or functional assay
[18] = target: hemagglutinin (HA) of H5N1 virus strain YN2.1 (H5N1 avian influenza virus, strain YN2.1); test: cell-based or functional assay

B1: monoclonal antibody 8G9 (antibody, V domains shown)
VH: QVQLQQPGVELVRPGASVKLSCKASGYTFTSFWMNWVKQRPDQGLEWIGRIDPYDSETHYNQKFKDKAILTVDKSSSTAYMQLSSLTSEDSAVYYCGRGIATLMVLPDYWGQGTSVTVSS
VL: DILMTQSPSSMSVSLGDTVSITCHASQDISSNMGWLQQKPGKSLKGLIYHGTNLEDGVPSRFSGSGSGPDYSLTISSLESEDFADYYCVQYIQFPWTFGGGTKLEIKR
[1]
  OD value relative to that of the control antibodies: > 3 fold
[2]
  Positive number/total virus number, hemagglutination inhibition assay (of 14 virus strains positive): 0
[3]
  Positive number/total virus number, hemagglutination inhibition assay (of 15 virus strains positive): 15
[4]
  Hamaglutinin inhibition titer: 12800 titer
  Neutralization titer: 12800 titer
[5]
  Hamaglutinin inhibition titer: 12800 titer
  Neutralization titer: 12800 titer
[6]
  Hamaglutinin inhibition titer: 12800 titer
  Neutralization titer: 12800 titer
[7]
  Hamaglutinin inhibition titer: 12800 titer
  Neutralization titer: 12800 titer
[8]
  Hamaglutinin inhibition titer: 12800 titer
  Neutralization titer: 12800 titer
[9]
  Hamaglutinin inhibition titer: 12800 titer
  Neutralization titer: 12800 titer
[10]
  Hamaglutinin inhibition titer: 12800 titer
  Neutralization titer: 12800 titer
[11]
  Hamaglutinin inhibition titer: 12800 titer
  Neutralization titer: 12800 titer
[12]
  Hamaglutinin inhibition titer: 12800 titer
  Neutralization titer: 12800 titer
[13]
  Hamaglutinin inhibition titer: 12800 titer
  Neutralization titer: 12800 titer
[14]
  Hamaglutinin inhibition titer: 12800 titer
  Neutralization titer: 12800 titer
[15]
  Hamaglutinin inhibition titer: 12800 titer
  Neutralization titer: 12800 titer
[16]
  Hamaglutinin inhibition titer: 12800 titer
  Neutralization titer: 12800 titer
[17]
  Hamaglutinin inhibition titer: 12800 titer
  Neutralization titer: 12800 titer
[18]
  Hamaglutinin inhibition titer: 12800 titer
  Neutralization titer: 12800 titer
